Tested on: MS2 coat protein
Assay: apparent KD of MS2 coat protein; designed switch direction (-1 OFF switch, 1 ON switch): 1; higher = weaker reporter binding
Procedure, shortened: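 The reported apparent KD is a per-design median over clusters, from curve fits of normalised cluster fluorescence. Protein titrations used SNAP-549-labelled MS2 coat protein, doubled from 0.7 or 1.5 nM to 3 µM, in Tris-HCl pH 7.5 buffer with KCl, MgCl2, BSA, DTT, tRNA and Tween-20, with no input, 200 uM small-molecule ligand, or an oligonucleotide input. The RNA switches were transcribed on Illumina chips by stalled E. coli RNA polymerase.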

[1] = input ligand: microRNA oligo, concentration not stated
[2] = Eterna round: R95, input ligand: FMN 200 uM
[3] = Eterna round: R95, input ligand: microRNA oligo, concentration not stated
[4] = Eterna round: R95, input ligand: none

Row | Sequence | apparent KD of MS2 coat protein (input ligand: FMN 200 uM) [nM] | apparent KD of MS2 coat protein [1] [nM] | apparent KD of MS2 coat protein (input ligand: none) [nM] | apparent KD of MS2 coat protein [2] [nM] | apparent KD of MS2 coat protein [3] [nM] | apparent KD of MS2 coat protein [4] [nM]
1 | AUUAUUUAUGCAGGAUAUGAUUAACAUGAGGAUCACCCAUGUGGUGUUGUGAGUAAGGAGAGUGAUCAGAAGGGCAUUUUUGUU [JMF's solution 53] (Eterna round: R96, puzzle: Same State NG 2) | 992 | 438 | 657 | – | – | –
2 | UGUCCAGCCUGAGCUGGACAAAAGCAUGUACAUGAGGAUCACCCAUGUUCAUGUACAAGCUUUUUGCUCGUCUUACA [salish99_208a_r3_080] (puzzle: Sensor for hsa-mir-208a) | – | – | – | 347 | 15.2 | 529
3 | ACAAGCUUUUUGCUCAUCUUAUGUCCGAAACAUGAGGAUCACCCAUGUGUAGAUUAUGUGUUGUUUUUGAUACGAGA [JR_SHM208A_Sub065] (puzzle: Sensor for hsa-mir-208a) | – | – | – | 68.1 | 28.4 | 80.3
4 | UGAAUAGUCACAGGAUAUCAUGCGAAAAUUGCGUGAGAAGGGUGGAUGUUGUGCUCAAAGUUCUACAUGAGGAUCACCCAUGUU [SameState NG1 #43] (Eterna round: R96, puzzle: Same State NG 1) | 61.2 | 64 | 63.3 | – | – | –
5 | AUGCCAAAAGGAGGAUAUGGAGCCUUAUUGGCUCCAGAAGGCUUGACAUGAGGAUCACCCAUGUGGCAGUGGUCUAAUGACCAC [Eli NG1ss - 43] (Eterna round: R96, puzzle: Same State NG 1) | – | 13.7 | – | – | – | –
6 | UUGAAGAAUUAAGGAUAUUGAGUACAUAUGUAAAACAUGAGGAUCACCCAUGUGGGUUGCGGUAUCGAGAAGGUAAAUUACUAG [Mat - same State NG 2 - JL mod - D69] (Eterna round: R96, puzzle: Same State NG 2) | 69.9 | 66.2 | 65.9 | – | – | –
7 | GGUAUGGACACAGGAUAUGCUUACGAAACGUAAGCAGAAGGGUGAACAUGAGGAUCACCCAUGUACGUGCCAGGGCGUGAGCCC [JL SSNG1 1.77] (Eterna round: R96, puzzle: Same State NG 1) | 1420 | 29.8 | 920 | – | – | –
8 | GUGGUCAGACAUGAGGAUCACCCAUGUGGAAUAAAUAAGGGACAGGAUAUUUAAUAUAGGAUAUAGAAGAAGGGUUGGUUGGUG (Eterna round: R96, puzzle: Same State NG 3) | – | 88.7 | – | – | – | –
9 | AGAGCCGGCACCGAGGAUAUUCAUAUUAAAACAUGAGGAUCACCCAUGUAGGCCAGAAGGCCUUGGGAGAAGGCGGAUCGGCUCG [Xeonanis - 7] (Eterna round: R96, puzzle: Same State 2) | 32.5 | 335 | 559 | – | – | –
10 | AUUACUAAUGCAGGAUAUGAUUAACAUGAGGAUCACCCAUGUGGUGUUGUGAGUAAGGAGAGUGAUCAGAAGGGCAUUUUUUUU [JMF's solution 29] (Eterna round: R96, puzzle: Same State NG 2) | 518 | 362 | 325 | – | – | –
11 | GGUGGGUUACUACCAACACAUGAGGAUCACCCAUGUUUUGGGAAGGAUAUGGUACCUAUUUGGUACCAGAAGGUCCAGUUAGUG [salish99_SSNG3_r04_703] (Eterna round: R96, puzzle: Same State NG 3) | 61.9 | 37.7 | 40 | – | – | –
12 | AGAAGGAGAGCGCAGGAUAUCGAUAAUGACACAUGAGGAUCACCCAUGUUUGGUAUUAGAAGGAACGAGAAGGGUGAAAGGAGAA [knee_arm_01] (puzzle: Same State 2) | – | – | – | 59.2 | 59.8 | 116
13 | GUUACAUGAGGAUCACCCAUGUAUGUGUGGGAGUAAGUGUCUUAGGAUAUCUAGUAUUUAAAUUAAGAGAAGGAAGAUUGUUGU [JMF's solution 9] (Eterna round: R96, puzzle: Same State NG 3) | 117 | 84.8 | 113 | – | – | –
14 | GCGAGCGUACUUGCAGACAUGAGGAUCACCCAUGUAACUGGGUAGGAUAUGGUACCGUUUCGGUACCAGAAGGACUUAUGAAAG [JL SSNG3 1.50] (Eterna round: R96, puzzle: Same State NG 3) | 67 | 35 | 54.4 | – | – | –
15 | AUUAUUUAUGCAGGAUAUGAUUAACAUGAGGAUCACCCAUGUGGUGUUGUGAGUAAGGAGAGUGAUCAGAAGGGCAUUUUUAUU [JMF's solution 52] (Eterna round: R96, puzzle: Same State NG 2) | 627 | 493 | 568 | – | – | –
16 | GUAGCAUACCGAGGAUAUUCAUAUUAACAUGAGGAUCACCCAUGUUGGCCACAUUAGUGGCCUUGGGAGAAGGCGGAAUGCUAC [Xeonanis - 20 Mod38] (Eterna round: R96, puzzle: Same State NG 2) | 19.6 | 107 | 140 | – | – | –
17 | AUAAGUUCGAUGCUCGUCUCUCCGUACAAACAUGAGGAUCACCCAUGUGAUUGGGCAAUAGCCCAAUCAGUAUGACC [Gemaa] (puzzle: Sensor for hsa-mir-208a) | – | – | – | 38.1 | 26 | 41.5
18 | ACCCAAAGUAUAUGGGAACAAGCUUUUUAACAUGAGGAUCACCCAUGUACUCGUCUUAUAAGCAGUCGAAAGACUGC [hsa-mir-208a sensor: 100] (Eterna round: R96, puzzle: Sensor for hsa-mir-208a) | 557 | 14.3 | 877 | – | – | –
19 | GGAAACAAGAGAGGAUAUGCAGAGGAUCACCCUGCAGAAGGCUCAAAAGAGAGGAUAUGCAGAGGAUCACCCUGCAGAAGGCUC [pwkr ssNG DX.27] (Eterna round: R96, puzzle: Same State NG 1) | 17.8 | 11.2 | 21.4 | – | – | –
20 | CAAGCUUGGGUCUUCCCGCUCGUCUACAAACAUGAGGAUCACCCAUGUAUACUCUUCGCAUCAAUUCUAUCUCUUGG [Onraenbi] (Eterna round: R96, puzzle: Sensor for hsa-mir-208a) | 176 | 23.1 | 163 | – | – | –
21 | CCGGACAUGAGGAUCACCCAUGUCGACGGAUACCCUUGGGCAUAGGAUAUCUGGAAUUAAAAGAAAGAGAAGGGUGAUCCAAGG [Qusoinrege] (Eterna round: R96, puzzle: Same State NG 3) | 23.6 | 40.8 | 40.4 | – | – | –
22 | GCUAGAAUUAAUGCUAACAUGAGGAUCACCCAUGUAUGUUGGCAGGAUAUCGUUUGCUUUGCAAACGAGAAGGGCCAUACUAGC [JL SSNG3 1.09] (Eterna round: R96, puzzle: Same State NG 3) | 20 | 14 | 26.3 | – | – | –
23 | AGGGUCGUGCUAGGAUAUCUAGGAUAUGGACGAGGAUUACCCGAGCAGCAUUAGCGCACCAGAGGAGAGAAGGAGCGUGAUGCG [pwkr ssNG2 2F5 2FMN.10] (Eterna round: R96, puzzle: Same State NG 2) | 329 | 2.76 | 63.7 | – | – | –
24 | GUGGCGGGUUGAGGAUAUUGGUUGCCGCUGUUUUACAUGAGGAUCACCCAUGUGGGUUGCGGUUUCGAGAAGGGCGGUUGCUGG [salish99_SSNG2_r04_056] (Eterna round: R96, puzzle: Same State NG 2) | 18.2 | 14.6 | 24 | – | – | –
25 | GUUACAUGAGGAUCACCCAUGUAUGUGUGGGAGUAAGUGUCUUAGGAUAUCUAUGAUUUAAUUUUAGAGAAGGAAGAUUGUUGU [JMF's solution 86] (Eterna round: R96, puzzle: Same State NG 3) | 112 | 70.9 | 90.8 | – | – | –
26 | GGUGUACAUGAGGAUCACCCAUGUCGACCGCUCACAGGAUAUUUAUUACAAACUGGUAGCGGAGAAGGGUGAGGGC [Maarraar] (puzzle: Same State 1) | – | – | – | 36.4 | 32.6 | 37.6
27 | GCGAGCGUACUUGCAGACAUGAGGAUCACCCAUGUAACUGGACAGGAUAUGGUACCGUUUCGGUACCAGAAGGGUCCAUAUGUC [JL SSNG3 3.54] (Eterna round: R96, puzzle: Same State NG 3) | 64.4 | 115 | 130 | – | – | –
28 | AAAAUGUGAUGUCACAUGAGGAUCACCCAUGUGGUGACAACUAAGGAUAUAACGAACCAAGGCGAUUAGAAGGUAGGAUCACAA [AK SSNG3-V2-17] (Eterna round: R96, puzzle: Same State NG 3) | 102 | 120 | 207 | – | – | –
29 | GAAAUAUAACAUGAGGAUCACCCAUGUACAUUGGUACGGCGGAAGGAUAUGAAAGACAUGGUCAAUUAGAAGGUCCUAUCAAAA [Eternabot solution 50] (Eterna round: R96, puzzle: Same State NG 3) | 102 | 114 | 139 | – | – | –
30 | GUAGCAUACCGAGGAUAUUCAUACCGGAAACGGACAUGAGGAUCACCCAUGUGGCGAAAGCCUUGGGAGAAGGCGGAAUGCUAC [Xeonanis - 20 Mod75] (Eterna round: R96, puzzle: Same State NG 2) | 18.4 | 341 | 675 | – | – | –

— the supplement of paper PMC9170038
